Data taken from patent US20110003886, “SELECTION OF RNA APTAMERS AS ANTI-MALARIA AGENTS” (FORSKARPATENT I SYD AB, published 2011).

Tests used:
[1] = tested on: PfEMP1 on FCR3S1.2-infected erythrocytes (Plasmodium falciparum); assay: cell_activity; details: 2'-F on all pyrimidines (C and U) [positions count without the 20-nt 5-prime fixed region]; rosette rate about 35% of control at 258 nM; 1 mM MgCl2
[2] = tested on: DBL1alpha-His (PfEMP1 Duffy binding-like domain 1alpha, strain FCR3S1.2) (Plasmodium falciparum); assay: pulldown; details: 2'-F on all pyrimidines (C and U) [positions count without the 20-nt 5-prime fixed region], 40 nM RNA, 350-400 nM protein, Ni-NTA beads, PBSM, yeast RNA, 37 C, RNA assayed as 90 nt with 2x20 nt flanks
[3] = tested on: GST-DBL1alpha (PfEMP1 DBL1alpha) (Plasmodium falciparum); assay: competition; details: 2'-F on all pyrimidines (C and U) [positions count without the 20-nt 5-prime fixed region], 30-fold molar excess unlabelled RNA
BSA = BSA (UniProt P02769 P02769:25-607); assay: EMSA; 10 ug BSA negative control; details: label: 32P; complex secondary structure predicted by mfold
Description: To study RNA/DBL1α^His interaction in solution a number of EMSA experiments were conducted. The protein used for these experiments was freshly eluted from the Ni-NTA beads to avoid long storage and freezing in solution to prevent precipitation of DBL1α^His The RNA was internally labelled with ³²P-ATP and migration after incubation with DBL1α^His or BSA was analysed on 10% native polyacrylamide gel. The upper band (177 nucleotide long RNA) seen in FIG. 4 is an incorrect product of the T7 transcription that is derived from a longer transcription template. This template is a product generated in the previous PCR reaction (binding of PCR primer to en external T7 site in the TOPO-vector). […] Throughout the EMSA experiments conducted, no real band shift was observed (RNA molecule bound to protein with slower migration).
FIG. 5. Mobility shift assay of selected clone e05. ˜30 ng internal ³²P-[αATP] labelled RNA was incubated with ˜300-400 ng DBL1α^His for 10 min. and loaded on 10% TBE-buffered PAA gel (+) together with negative control (−) incubated in the presence of 10 μg BSA.

BSA, sequence (P02769 25-607, one chain of several): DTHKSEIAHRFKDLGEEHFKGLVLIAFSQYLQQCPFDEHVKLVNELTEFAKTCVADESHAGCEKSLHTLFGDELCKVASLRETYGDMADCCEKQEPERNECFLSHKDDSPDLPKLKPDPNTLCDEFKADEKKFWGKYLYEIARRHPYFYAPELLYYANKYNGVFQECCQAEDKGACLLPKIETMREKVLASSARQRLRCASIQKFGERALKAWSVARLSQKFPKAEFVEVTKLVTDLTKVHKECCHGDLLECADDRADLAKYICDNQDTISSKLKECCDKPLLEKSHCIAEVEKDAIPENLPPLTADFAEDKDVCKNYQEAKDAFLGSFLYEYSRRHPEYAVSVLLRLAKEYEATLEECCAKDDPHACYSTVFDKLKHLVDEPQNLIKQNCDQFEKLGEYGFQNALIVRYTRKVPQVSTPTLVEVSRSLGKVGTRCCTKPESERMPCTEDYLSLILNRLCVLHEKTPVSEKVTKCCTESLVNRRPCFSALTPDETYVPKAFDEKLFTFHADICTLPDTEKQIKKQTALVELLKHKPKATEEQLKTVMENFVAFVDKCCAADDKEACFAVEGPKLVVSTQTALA

| Molecule | activity (nM (complete rosette disruption)) [1] | binding signal (% RNA recovery) ([2]; clone also listed as SEQ 6/12) | binding signal (% decrease of labelled RNA recovery) [3] | binding signal (% RNA recovery) ([2]; clone also listed as SEQ 5/11) | binding signal (% RNA recovery) ([2]; clone also listed as SEQ 4/10) | binding signal (% decrease of labelled RNA recovery) ([3]; 60% decrease at 45-fold, no decrease with 30-fold e02 or pool 0) | binding result (BSA) |
| --- | --- | --- | --- | --- | --- | --- | --- |
| GGGAAUUCGAGCUCGGUACCCUUCGAACGGCCCUGGUUGUUGGUUUUAAUUCAUUUAUCCGCGUGGUCACGGUCGUAGCAAGCUCUGCAGUCG [e05] | 387 | 70 | 40 | – | – | – | – |
| GGGAAUUCGAGCUCGGUACCUCAUGUGCCAGUGUUUGAAAAAACGCGUUGAUUGCUGGUGUGGUGAGCUAGUCGUAGCAAGCUCUGCAGUCG | 387 | – | 40 | 70 | – | – | – |
| GGGAAUUCGAGCUCGGUACCUGCCAACCUUCGAUGCAAGAUAAUACUUUUGAUGGUGUAGUCGUAUUGUUCGUAGCAAGCUCUGCAGUCG [d12] | 387 | – | – | – | 70 | 40 | – |
| e05 (ssRNA, 2'-F on all pyrimidines (C and U) [positions count without the 20-nt 5-prime fixed region]) RNA: GGGAAUUCGAGCUCGGUACCCUUCGAACGGCCCUGGUUGUUGGUUUUAAUUCAUUUAUCCGCGUGGUCACGGUCGUAGCAAGCUCUGCAGUCG | – | – | – | – | – | – | no binding |
